{"source": "patent US20210371503A1", "about": "(UNIVERSITY OF COLOGNE, published 2021)", "biological_target": "T1, prefusion stabilized SARS-CoV-2 S ectodomain (SARS-CoV-2, UniProt P0DTC2 14-1208)", "T1 construct": "also called SARS-CoV-2 spike ectodomain; ectodomain of the spike (S) homotrimer of SARS-CoV-2", "assay": "assay not stated; row Binding Affinity Spike Trimer, construct not given", "data": [{"binder": "DZIF-10c (antibody, V domains shown, also called HbnC3t1p1_F4(-K); EX14870) VH: QVQLVESGGGVVQPGRSLRLSCAATGFTFRRYGMHWVRQAPGKGLEWVAGILFDGSNKYYVDSVKGRFTISRDSSRNTLYLQLNSLRREDTAVYYCAKGGDYEWELLESWGQGTLVTVSS VL: DIQMTQSPSTVSASVGDRVTITCRASQSIDNWLAWYQEKPGKAPKVLIYKASSLESGVPSRFSGRGSGTEFTLTISSLQPGDFATYYCQHYHSFPLTFGGGTKVDIKR", "values": [{"measurement": "Kd", "value": 650, "unit": "pM"}]}]}
